{
  "source": "patent US20260263638A1",
  "about": "“COMPOSITIONS AND METHODS TO IMPROVE RNA PROPERTIES USING BASE, PHOSPHODIESTER LINKAGE, SUGAR BACKBONE, AND CAP MODIFICATIONS” (The Broad Institute, Inc., priority 2023, published 2026)",
  "key": {"[1]": {"assay": "Quantification of plasma hEPO by ELISA after mRNA-LNP injection", "type": "in vivo", "settings": "mice, hEPO mRNA-LNP retro-orbital", "protocol": "All animal procedures followed animal care guidelines approved by the Institutional Animal Care and Use Committee (IACUC) of the Broad Institute of MIT and Harvard under animal protocol #0255-08-19. Animal experiments were conducted in compliance with IACUC policies and NIH guidelines. The BALB/cj (male, 6~8 weeks old) mice used for in vivo NanoLuc assay in this study were purchased from The Jackson Laboratory (JAX). The C57BL/6 mice (female, 7 weeks old), used for hEPO assay in this study were purchased from The Jackson Laboratory (JAX).\n(§1) mRNA diluted in 50 mM citrate buffer (pH 4) and lipid mix (37.5 mM in ethanol) containing 50 mol % SM-102, 10 mol % DSPC, 38.5 mol % Cholesterol, and 1.5 mol % DMG-PEG2000 were assembled into LNP using a NanoAssemblr Spark instrument [Precision Nanosystems]. Upon formulation, mRNA-LNPs were diluted in 12 mL 1×PBS solution and the buffer was exchanged by concentrating with a 30 kDa spin filter [MilliporeSigma, UFC901008] to remove residue ethanol. Concentrations and encapsulation efficiency of mRNA were determined using Quant-it RiboGreen RNA Assay Kit [ThermoFisher, R11490]. 1 μg NanoLuc or hEPO mRNA-LNP in a total volume of 100 μL was injected through retro orbital injection into each mouse. Four mice were used for each condition of each experiment (NanoLuc imaging, hEPO ELISA, and reticulocyte counting). For NanoLuc imaging, PBS injection was used as negative control. For hEPO/reticulocyte experiments, poly(C)-LNP complex was used as negative control.\nAt the indicated time points, approximately 100 μL of blood was collected with EDTA-coated capillary tubes from each mouse and then transferred to an EDTA-coated tube. The collected blood samples were centrifuged at 2000 g for 10 min, followed by transferring the resulting plasma into another tube. The hEPO levels in the plasma samples were measured by Human Erythropoietin (EPO) ELISA kit [LEGEND MAX, 442907]. Final concentrations for hEPO were adjusted based on the volume and dilution fold."}, "[2]": {"tested_on": "plasma tumor necrosis factor alpha (TNF-α)", "design": "species or system mice", "settings": "mouse, in vivo", "protocol": "(§2) To evaluate the in vivo toxicity and immune response, plasma collected on day 7 post mRNA-LNP administration for the hEPO group. ALT and TNF-alpha were measured using ELISA kits for ALT [G-Biosciences, IT5508] and TNF-alpha [R&D Systems, MTA00B] per manufacturer's protocols."}, "[3]": {"tested_on": "plasma alanine transaminase (ALT)", "assay": "In vivo toxicity assay: plasma ALT ELISA", "settings": "mice; hEPO mRNA-LNP groups", "protocol": "as §2"}, "reticulocytes": {"tested_on": "reticulocytes", "assay": "Plasma reticulocyte counting by flow cytometry", "type": "in vivo", "settings": "mice; day 6 post-administration", "protocol": "as §1\n10 μL […] sample was added into 1 mL of the Reticulocyte Reagent [BD Bioscience] at the indicated time points and the mixture was incubated at room temperature for 30 minutes with protection from light. The samples were analyzed with Beckman CytoFLEX LX Flow Cytometer with 100,000-event records for each sample. Thiazole orange positive cells are defined as reticulocytes."}, "PABPC4 (Homo sapiens)": {"tested_on": "PABPC4 (Homo sapiens)", "assay": "pulldown", "settings": "LNA-m7G cap; LNA at position 1; 2'-OMe at next 5 bases; 3'-biotin; SILAC MS, vs m7G cap-0 oligo; may be indirect"}, "PABPC1 (Homo sapiens)": {"tested_on": "PABPC1 (Homo sapiens)", "assay": "pulldown", "settings": "LNA-m7G cap; LNA at position 1; 2'-OMe at next 5 bases; 3'-biotin; SILAC MS, vs m7G cap-0 oligo; may be indirect"}, "XRN2 (Homo sapiens)": {"tested_on": "XRN2 (Homo sapiens)", "assay": "pulldown", "settings": "LNA-m7G cap; LNA at position 1; 2'-OMe at next 5 bases; 3'-biotin; SILAC MS, vs m7G cap-0 oligo"}, "eIF4G1 (Homo sapiens)": {"tested_on": "eIF4G1 (Homo sapiens)", "assay": "pulldown", "settings": "LNA-m7G cap; LNA at position 1; 2'-OMe at next 5 bases; 3'-biotin; SILAC MS, vs m7G cap-0 oligo; may be indirect via eIF4E"}, "PARN (Homo sapiens)": {"tested_on": "PARN (Homo sapiens)", "assay": "pulldown", "settings": "LNA-m7G cap; LNA at position 1; 2'-OMe at next 5 bases; 3'-biotin; SILAC MS, vs m7G cap-0 oligo"}, "CASC3 (Homo sapiens)": {"tested_on": "CASC3 (Homo sapiens)", "assay": "pulldown", "settings": "LNA-m7G cap; LNA at position 1; 2'-OMe at next 5 bases; 3'-biotin; SILAC MS, vs m7G cap-0 oligo"}, "eIF4A1 (Homo sapiens)": {"tested_on": "eIF4A1 (Homo sapiens)", "assay": "pulldown", "settings": "LNA-m7G cap; LNA at position 1; 2'-OMe at next 5 bases; 3'-biotin; SILAC MS, vs m7G cap-0 oligo; may be indirect"}, "eIF4E (Homo sapiens)": {"tested_on": "eIF4E (Homo sapiens)", "assay": "pulldown", "settings": "LNA-m7G cap; LNA at position 1; 2'-OMe at next 5 bases; 3'-biotin; SILAC MS, vs m7G cap-0 oligo; HEK293T lysate"}, "DHX15 (Homo sapiens)": {"tested_on": "DHX15 (Homo sapiens)", "assay": "pulldown", "settings": "LNA-m7G cap; LNA at position 1; 2'-OMe at next 5 bases; 3'-biotin; SILAC MS, vs m7G cap-0 oligo"}, "NCBP1 (Homo sapiens)": {"tested_on": "NCBP1 (Homo sapiens)", "assay": "pulldown", "settings": "LNA-m7G cap; LNA at position 1; 2'-OMe at next 5 bases; 3'-biotin; SILAC MS, vs m7G cap-0 oligo"}, "eIF2B (Homo sapiens)": {"tested_on": "eIF2B (Homo sapiens)", "assay": "pulldown", "settings": "LNA-m7G cap; LNA at position 1; 2'-OMe at next 5 bases; 3'-biotin; SILAC MS, vs m7G cap-0 oligo"}, "eIF4G3 (Homo sapiens)": {"tested_on": "eIF4G3 (Homo sapiens)", "assay": "pulldown", "settings": "LNA-m7G cap; LNA at position 1; 2'-OMe at next 5 bases; 3'-biotin; SILAC MS, vs m7G cap-0 oligo; may be indirect"}, "eIF3A (Homo sapiens)": {"tested_on": "eIF3A (Homo sapiens)", "assay": "pulldown", "settings": "LNA-m7G cap; LNA at position 1; 2'-OMe at next 5 bases; 3'-biotin; SILAC MS, vs m7G cap-0 oligo; may be indirect"}, "HeLa cells": {"tested_on": "HeLa cells", "assay": "Time-course dual luciferase assay of modified Firefly luciferase mRNA (Renilla control)", "type": "cell-based", "settings": "from 8~72 hours"}, "[4]": {"target": "tRNA guanine transglycosylase (TGT) (UniProt P0A847 P0A847:1-375)", "sequence (P0A847 whole entry, one chain of several)": "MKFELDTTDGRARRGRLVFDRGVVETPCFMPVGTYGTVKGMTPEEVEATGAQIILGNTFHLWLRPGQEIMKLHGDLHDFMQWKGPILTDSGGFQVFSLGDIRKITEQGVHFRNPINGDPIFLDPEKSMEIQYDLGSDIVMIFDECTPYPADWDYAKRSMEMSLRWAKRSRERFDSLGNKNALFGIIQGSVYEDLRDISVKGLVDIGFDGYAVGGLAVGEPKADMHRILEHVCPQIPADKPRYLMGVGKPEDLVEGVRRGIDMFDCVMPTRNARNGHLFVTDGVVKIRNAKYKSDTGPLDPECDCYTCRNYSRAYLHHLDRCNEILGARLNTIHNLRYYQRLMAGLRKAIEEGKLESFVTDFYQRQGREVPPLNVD", "assay": "site-specific preQ1-azide labeling of hairpin in circRNA; 20 mM MgCl2, pH 7.3, 37 C", "settings": "tags: His tag, expressed in E. coli", "protocol": "CircRNA bearing a TGT hairpin was synthesized as described above. TGT enzyme was expressed in E. Coli as previously described in Alexander et al. “Site-specific covalent labeling of RNA by enzymatic transglycosylation.” J. Am. Chem. Soc. […] To label the circRNA with preQ1-azide, 1 μM of circRNA, 100 µM of preQ1-azide, 10 μM of TGT, 10 μL of SUPERase-In RNase inhibitor were incubated in 1× TGT reaction buffer (100 mM HEPES, pH 7.3, 5 mM DTT, and 20 mM MgCl₂) in a total of 100 μL reaction at 37° C. for 2 hours. The labeled circRNA was purified and subjected to click reaction with Bn7G-capped alkyne labeled oligo using the general condition for click reaction for 30 mins. The circRNA was then subjected to RP-HPLC purification to remove the linearized portions (method 3), pooled and desalted, and subjected to another round of RP-HPLC purification to isolate the QRNA product (method 4). QRNA product was characterized by RNase H assay with 2 primers upstream/downstream the TGT site."}, "eIF4E": {"target": "eIF4E (UniProt P06730 P06730:1-217)", "sequence (P06730 whole entry, one chain of several)": "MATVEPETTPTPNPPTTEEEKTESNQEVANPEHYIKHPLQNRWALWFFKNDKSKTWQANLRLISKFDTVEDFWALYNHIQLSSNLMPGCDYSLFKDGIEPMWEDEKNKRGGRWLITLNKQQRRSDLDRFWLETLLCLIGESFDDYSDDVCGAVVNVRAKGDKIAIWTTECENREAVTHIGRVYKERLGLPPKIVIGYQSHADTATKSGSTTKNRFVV", "assay": "EMSA; 50 mM KCl, 10 mM Tris-HCl pH 7.6, 4 C; confirmed by competitive EMSA against mono-capped (FIG. 9H)", "settings": "tags: His tag; Cayman Chemical 25150; label: AF647-cytidine; branched", "protocol": "Capped oligonucleotides were labeled on the 3′ end using AF647 labeled cytidine-5′-phosphate-3′-(6-aminohexyl) phosphate [Jena Bioscience, NU-1706-AF647] and T4 RNA ligase ligated AF647-labeled cytidine onto the capped oligos using manufacturer's protocols. Oligos were then incubated in the binding buffer (1 mM DTT, 50 mM KCl, 10 mM Tris-HCl (pH 7.6), Novex Hi-Density TBE Sample Buffer [Invitrogen, LC6678]) with varying eIF4E-His [Cayman Chemical Inc, 25150] concentrations prepared by sequential dilutions from the stock solution. The oligos and […] were incubated at 4° C. for 30 mins and characterized by EMSA with Novex TBE Gels, 4-20% [Invitrogen, EC6225BOX] at 4° C. AF647 labeled oligos were imaged with BioRad ChemiDoc MP Imaging System [12003154] and band intensities were quantified using ImageJ. For Kd calculation, the proportions of bound were plotted against eIF4E concentration using GraphPad Prism (Specific binding with Hill slope).\nTo gain insights into the mechanism of how the topologically branched internal cap initiates mRNA translation, Applicant used fluorophore-labeled mono- or dual-capped oligonucleotides and measured their affinity to eIF4E through EMSA."}},
  "data": [
    {"molecule": "construct S20: hEPO mRNA, two LNAm7G caps, LNA-2OMe 5′ UTR, PS-2MOE_ddC tail, in LNP (SEQ ID NO: 137) (AGATAAATAAAAAA; mRNA with two LNA-m7G caps, LNA/2'-OMe UTR, PS-MOE ddC tail, in LNP, further chemistry not given here)", "values": [
      {"measurement": "Plasma hEPO expression remained detectable until", "setting": "[1]", "value": 6, "unit": "days"},
      {"measurement": "Time of peak plasma hEPO expression", "setting": "[1]", "value": 6, "unit": "h"},
      {"measurement": "Peak plasma hEPO expression", "setting": "[1]; 6 hours", "value": "6009±578", "unit": "mlU/mL"},
      {"measurement": "Plasma TNF-α (immunogenicity)", "setting": "[2]", "value": "No significant changes"},
      {"measurement": "Plasma ALT (toxicity)", "setting": "[3]", "value": "No significant changes"},
      {"measurement": "Increase in reticulocyte counts compared to poly(C)-LNP-treated group", "setting": "reticulocytes", "value": 64, "unit": "%"},
      {"measurement": "Reticulocytes, % of total red blood cells", "setting": "reticulocytes", "value": "6.4±0.2", "unit": "%"}
    ]},
    {"molecule": "SILAC modified 20-nt oligo", "values": [
      {"measurement": "binding signal (fold enrichment)", "setting": "PABPC4 (Homo sapiens)", "value": 5.5},
      {"measurement": "binding signal (fold enrichment)", "setting": "PABPC1 (Homo sapiens)", "value": 5.5},
      {"measurement": "binding signal (fold enrichment)", "setting": "XRN2 (Homo sapiens)", "value": 10.2},
      {"measurement": "binding signal (fold enrichment)", "setting": "eIF4G1 (Homo sapiens)", "value": 42.1},
      {"measurement": "binding signal (fold enrichment)", "setting": "PARN (Homo sapiens)", "value": 8},
      {"measurement": "binding signal (fold enrichment)", "setting": "CASC3 (Homo sapiens)", "value": 5.4},
      {"measurement": "binding signal (fold enrichment)", "setting": "eIF4A1 (Homo sapiens)", "value": 2.5},
      {"measurement": "binding signal (fold enrichment)", "setting": "eIF4E (Homo sapiens)", "value": 15.2},
      {"measurement": "binding signal (fold repulsion)", "setting": "DHX15 (Homo sapiens)", "value": 15.1},
      {"measurement": "binding signal (fold repulsion)", "setting": "NCBP1 (Homo sapiens)", "value": 32.8},
      {"measurement": "binding signal (fold repulsion)", "setting": "eIF2B (Homo sapiens)", "value": 5.1},
      {"measurement": "binding signal (fold enrichment)", "setting": "eIF4G3 (Homo sapiens)", "value": 27.9},
      {"measurement": "binding signal (fold enrichment)", "setting": "eIF3A (Homo sapiens)", "value": 5.8}
    ]},
    {"molecule": "construct 39: two LNAm7G caps; /5Phos/+AmGmAmGmAmUrArA/3AzideN/ clicked to /5Phos/+AmGmAmUmAmArA/i50CTdU/rArArArArArA (SEQ ID NO: 50) (AGATAAATAAAAAA; two LNA-m7G caps; branched click linkage; 2'-OMe; modified_base 1 OTHER; 5'-phosphate modified Locked nucleic acid; modified_base 2 OTHER; 2'-O-methyl modified nucleotide; modified_base 3 OTHER; modified_base 4 OTHER; modified_base 5 OTHER; modified_base 6 OTHER; modified_base 8 OTHER; 5-Octadiynyl modified uracil; m)", "values": [
      {"measurement": "Protein expression boost vs conventional linear mRNA with only m7G-rG cap and m1Ψ", "setting": "HeLa cells", "value": "5.5~99 fold"}
    ]},
    {"molecule": "GCAGACUGUAAAUCUGC (ssRNA)", "note": "[TGT recognition hairpin]", "values": [
      {"measurement": "binding result", "setting": "[4]", "value": "binds"}
    ]},
    {"molecule": "2xm7G dual-capped branched (31) (ssRNA, m7G cap on both 5' ends; second strand 3'-azide clicked to 5-octadiynyl-dU at position 8 of first strand) RNA 1: AGAUAAAUAAAAAA RNA 2: AGAGAUAA", "values": [
      {"measurement": "Kd", "setting": "eIF4E", "value": 1410, "unit": "nM"}
    ]}
  ]
}
